Values quoted from earlier work, collected in PMC5713020.
Values joined by “and” are separate entries in the source; they are usually repeats but may differ in a detail not shown here. Identical values can stand only once.

Columns and labels:
[1] = target: p53 (Homo sapiens) (UniProt P04637); experiment: SPR
[2] = target: MDM4 (Homo sapiens) (UniProt O15151); experiment: SPR
[3] = target: MDM4 (Homo sapiens) (UniProt O15151); experiment: SPR (Langmuir isotherm)
[4] = target: p63 DBD (Homo sapiens) (UniProt Q9H3D4); experiment: AFS
Sequence of p63 DBD (Homo sapiens) (Q9H3D4 166-362): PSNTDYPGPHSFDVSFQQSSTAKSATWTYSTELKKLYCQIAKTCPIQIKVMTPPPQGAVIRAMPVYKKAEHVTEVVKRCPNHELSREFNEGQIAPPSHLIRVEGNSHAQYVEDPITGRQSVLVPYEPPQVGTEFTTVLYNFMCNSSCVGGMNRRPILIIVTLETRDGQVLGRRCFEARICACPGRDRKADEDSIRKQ

[5] = target: p73 (Homo sapiens) (UniProt O15350); experiment: AFS
Sequence of p73 (Homo sapiens) (O15350 whole entry): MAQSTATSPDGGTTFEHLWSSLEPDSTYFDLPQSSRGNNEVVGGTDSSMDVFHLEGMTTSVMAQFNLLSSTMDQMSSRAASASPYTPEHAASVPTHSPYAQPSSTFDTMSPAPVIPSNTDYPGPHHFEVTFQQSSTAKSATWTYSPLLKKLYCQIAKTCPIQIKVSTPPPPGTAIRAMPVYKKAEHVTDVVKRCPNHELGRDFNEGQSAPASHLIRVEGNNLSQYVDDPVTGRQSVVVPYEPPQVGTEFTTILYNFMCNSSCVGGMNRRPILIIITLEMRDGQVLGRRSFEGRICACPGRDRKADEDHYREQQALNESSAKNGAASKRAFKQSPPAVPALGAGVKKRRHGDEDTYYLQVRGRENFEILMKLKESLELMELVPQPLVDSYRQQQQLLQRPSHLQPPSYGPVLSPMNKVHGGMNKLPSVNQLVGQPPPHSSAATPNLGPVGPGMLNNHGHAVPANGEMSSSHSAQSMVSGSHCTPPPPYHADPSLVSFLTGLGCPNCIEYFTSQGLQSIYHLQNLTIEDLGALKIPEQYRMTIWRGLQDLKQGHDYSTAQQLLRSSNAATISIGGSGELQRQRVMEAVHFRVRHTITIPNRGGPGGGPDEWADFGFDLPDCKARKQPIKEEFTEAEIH

Sequence of p28 p28 peptide (P00282 70-97): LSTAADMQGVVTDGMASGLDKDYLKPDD
Sequence of MDM4 (Homo sapiens) (O15151 whole entry): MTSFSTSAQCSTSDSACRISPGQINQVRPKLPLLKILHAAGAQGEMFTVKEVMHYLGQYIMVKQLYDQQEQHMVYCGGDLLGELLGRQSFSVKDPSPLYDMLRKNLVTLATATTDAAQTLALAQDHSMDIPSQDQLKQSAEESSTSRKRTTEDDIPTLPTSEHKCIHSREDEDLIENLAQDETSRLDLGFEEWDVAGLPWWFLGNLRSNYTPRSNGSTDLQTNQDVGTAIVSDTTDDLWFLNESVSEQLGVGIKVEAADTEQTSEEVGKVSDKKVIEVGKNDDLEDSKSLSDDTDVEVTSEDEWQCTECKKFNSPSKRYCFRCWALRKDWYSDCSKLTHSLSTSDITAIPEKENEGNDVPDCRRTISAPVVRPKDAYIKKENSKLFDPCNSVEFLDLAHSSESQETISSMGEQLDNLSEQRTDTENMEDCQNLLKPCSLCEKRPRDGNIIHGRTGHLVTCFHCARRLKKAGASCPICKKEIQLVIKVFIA
Sequence of MDM2 (Q00987 whole entry): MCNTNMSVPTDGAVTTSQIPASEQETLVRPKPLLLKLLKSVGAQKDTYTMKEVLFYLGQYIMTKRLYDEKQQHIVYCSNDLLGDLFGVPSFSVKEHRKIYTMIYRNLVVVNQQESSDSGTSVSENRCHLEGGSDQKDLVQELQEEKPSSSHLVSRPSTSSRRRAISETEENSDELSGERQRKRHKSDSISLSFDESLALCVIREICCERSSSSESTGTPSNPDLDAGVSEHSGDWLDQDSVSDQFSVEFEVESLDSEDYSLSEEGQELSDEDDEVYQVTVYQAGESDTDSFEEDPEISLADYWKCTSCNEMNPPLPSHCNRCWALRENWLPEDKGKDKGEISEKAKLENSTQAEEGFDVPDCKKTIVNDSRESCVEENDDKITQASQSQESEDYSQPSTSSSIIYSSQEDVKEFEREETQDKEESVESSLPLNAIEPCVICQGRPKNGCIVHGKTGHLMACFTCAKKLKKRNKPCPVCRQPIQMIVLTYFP
Sequence of Azurin (P00282 21-148): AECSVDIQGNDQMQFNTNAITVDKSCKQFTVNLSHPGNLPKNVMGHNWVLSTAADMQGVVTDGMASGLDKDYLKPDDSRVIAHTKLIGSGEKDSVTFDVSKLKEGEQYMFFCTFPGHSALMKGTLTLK
Sequence of p53 (Homo sapiens) (P04637 whole entry): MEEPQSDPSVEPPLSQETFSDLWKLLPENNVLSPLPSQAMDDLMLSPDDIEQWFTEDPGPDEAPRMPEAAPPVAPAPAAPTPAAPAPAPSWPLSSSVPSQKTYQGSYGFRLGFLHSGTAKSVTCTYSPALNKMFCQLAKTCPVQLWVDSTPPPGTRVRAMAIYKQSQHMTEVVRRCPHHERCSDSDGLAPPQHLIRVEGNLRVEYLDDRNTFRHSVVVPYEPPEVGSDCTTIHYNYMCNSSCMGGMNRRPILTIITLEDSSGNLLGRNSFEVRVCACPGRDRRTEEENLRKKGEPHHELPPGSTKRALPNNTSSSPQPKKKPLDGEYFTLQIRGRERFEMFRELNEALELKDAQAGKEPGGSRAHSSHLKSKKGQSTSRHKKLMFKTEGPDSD

**Q.** With Azurin (from UniProt P00282) as the substance, how does the Kd [1] read?
**A.** The Kd was 1.3 µM and 1.2 µM.

**Q.** With MDM2 (from UniProt Q00987) as the substance, how does the Kd [2] read?
**A.** The Kd was 0.39 µM.

**Q.** And the Kd [3]?
**A.** The Kd was 1 µM.

**Q.** With p28 p28 peptide (from UniProt P00282) as the substance, how does the Kd [4] read?
**A.** The Kd was 1 µM.

**Q.** What about the Kd [5] of the same substance?
**A.** The Kd was 0.1 µM.
